This is an account of results in publication PMC5014086 (2016).

Holding throughout (experiment): SPR
On the technique in general: Surface plasmon resonance follows binding to a sensor surface in real time, without labels.

Assay [1] addresses T1, wild-type KRM1ECD as immobilised for SPR (human, UniProt Q96MU8 21-392).
T1 chain: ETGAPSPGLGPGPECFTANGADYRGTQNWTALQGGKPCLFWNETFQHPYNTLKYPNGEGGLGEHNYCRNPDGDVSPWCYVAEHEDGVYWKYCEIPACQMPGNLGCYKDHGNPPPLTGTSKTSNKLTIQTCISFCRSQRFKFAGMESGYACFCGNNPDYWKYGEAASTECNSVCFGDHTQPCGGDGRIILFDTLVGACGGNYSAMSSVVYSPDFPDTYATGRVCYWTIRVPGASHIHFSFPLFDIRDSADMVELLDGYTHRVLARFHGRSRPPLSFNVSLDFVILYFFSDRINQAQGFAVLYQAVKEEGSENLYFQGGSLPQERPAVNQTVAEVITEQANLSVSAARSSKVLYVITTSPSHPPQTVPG

Assay [2] deals with T1, wild-type KRM1ECD as immobilised for SPR.
In the next assay the target is T2, LRP6_(PE1PE2) fragment.
T2 chain: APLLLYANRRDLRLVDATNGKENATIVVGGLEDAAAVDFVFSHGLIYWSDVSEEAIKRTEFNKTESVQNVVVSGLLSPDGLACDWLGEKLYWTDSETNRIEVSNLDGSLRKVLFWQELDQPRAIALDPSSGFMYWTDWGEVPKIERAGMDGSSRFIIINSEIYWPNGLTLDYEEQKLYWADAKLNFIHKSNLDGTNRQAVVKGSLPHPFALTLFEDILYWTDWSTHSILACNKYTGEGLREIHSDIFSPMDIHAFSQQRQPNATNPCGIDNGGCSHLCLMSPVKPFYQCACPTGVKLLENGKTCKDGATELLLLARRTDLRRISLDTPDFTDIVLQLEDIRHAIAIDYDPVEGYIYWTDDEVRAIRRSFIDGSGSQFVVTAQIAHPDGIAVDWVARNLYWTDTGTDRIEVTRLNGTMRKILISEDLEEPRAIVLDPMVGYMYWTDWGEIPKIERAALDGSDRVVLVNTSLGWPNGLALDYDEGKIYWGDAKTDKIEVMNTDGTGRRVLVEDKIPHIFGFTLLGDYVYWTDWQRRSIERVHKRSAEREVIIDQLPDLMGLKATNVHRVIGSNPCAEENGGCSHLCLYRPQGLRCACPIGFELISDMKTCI
To be noted: chain shown with the change; 25 µM LRP6PE1PE2 (highest concentration of the titration); parent: est. 100; read off a plot.

Assay [3] addresses T3, GlycoCUB mutant of KRM1ECD (309NQA311→NQS, N-glycan at N309) (human, UniProt Q96MU8 21-392, 309NQA311→NQS, additional N-glycan at N309).
T3 sequence: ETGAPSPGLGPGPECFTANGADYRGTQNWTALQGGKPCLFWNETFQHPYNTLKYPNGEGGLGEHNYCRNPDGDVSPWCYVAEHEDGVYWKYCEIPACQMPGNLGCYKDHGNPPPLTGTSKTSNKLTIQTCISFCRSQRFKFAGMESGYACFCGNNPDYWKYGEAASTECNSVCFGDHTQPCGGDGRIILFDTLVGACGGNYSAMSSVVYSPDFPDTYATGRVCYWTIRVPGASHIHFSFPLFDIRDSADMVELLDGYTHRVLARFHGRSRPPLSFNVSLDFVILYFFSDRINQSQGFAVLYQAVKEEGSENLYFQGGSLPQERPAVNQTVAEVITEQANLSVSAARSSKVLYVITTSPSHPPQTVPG

Where two headings read alike, the source gives them in different places.

B1: SUMO-DKK1_(Linker-CRD2), SUMO fusion as SPR analyte (domain or fragment)
chain: SDQNHFRGEIEETITESFGNDHSTLDGYSRRTTLSSKMYHTKGQEGSVCLRSSDCASGLCCARHFWSKICKPVLKEGQVCTKHRRKGSHGLEIFQRCYCGEGLSCRIQKDHHQASNSSRLHTCQRH
For B1, in assay [1], the Kd (commonly the equilibrium constant for the complex coming apart) came out at 400 nM.

B2: LRP6_(PE1PE2) fragment (domain or fragment)
chain: APLLLYANRRDLRLVDATNGKENATIVVGGLEDAAAVDFVFSHGLIYWSDVSEEAIKRTEFNKTESVQNVVVSGLLSPDGLACDWLGEKLYWTDSETNRIEVSNLDGSLRKVLFWQELDQPRAIALDPSSGFMYWTDWGEVPKIERAGMDGSSRFIIINSEIYWPNGLTLDYEEQKLYWADAKLNFIHKSNLDGTNRQAVVKGSLPHPFALTLFEDILYWTDWSTHSILACNKYTGEGLREIHSDIFSPMDIHAFSQQRQPNATNPCGIDNGGCSHLCLMSPVKPFYQCACPTGVKLLENGKTCKDGATELLLLARRTDLRRISLDTPDFTDIVLQLEDIRHAIAIDYDPVEGYIYWTDDEVRAIRRSFIDGSGSQFVVTAQIAHPDGIAVDWVARNLYWTDTGTDRIEVTRLNGTMRKILISEDLEEPRAIVLDPMVGYMYWTDWGEIPKIERAALDGSDRVVLVNTSLGWPNGLALDYDEGKIYWGDAKTDKIEVMNTDGTGRRVLVEDKIPHIFGFTLLGDYVYWTDWQRRSIERVHKRSAEREVIIDQLPDLMGLKATNVHRVIGSNPCAEENGGCSHLCLYRPQGLRCACPIGFELISDMKTCI
Take B2: binding in assay [2] was characterised by a dissociation constant (Kd) of 18900 nM.

B3: wild-type KRM1ECD as immobilised for SPR, Q96MU8 A311S (protein)
chain: ETGAPSPGLGPGPECFTANGADYRGTQNWTALQGGKPCLFWNETFQHPYNTLKYPNGEGGLGEHNYCRNPDGDVSPWCYVAEHEDGVYWKYCEIPACQMPGNLGCYKDHGNPPPLTGTSKTSNKLTIQTCISFCRSQRFKFAGMESGYACFCGNNPDYWKYGEAASTECNSVCFGDHTQPCGGDGRIILFDTLVGACGGNYSAMSSVVYSPDFPDTYATGRVCYWTIRVPGASHIHFSFPLFDIRDSADMVELLDGYTHRVLARFHGRSRPPLSFNVSLDFVILYFFSDRINQSQGFAVLYQAVKEEGSENLYFQGGSLPQERPAVNQTVAEVITEQANLSVSAARSSKVLYVITTSPSHPPQTVPG
With B3, the response (response units) with LRP6_(PE1PE2) fragment is -20.

B4: full-length DKK1 (ligand)
chain: TLNSVLNSNAIKNLPPPLGGAAGHPGSAVSAAPGILYPGGNKYQTIDNYQPYPCAEDEECGTDEYCASPTRGGDAGVQICLACRKRRKRCMRHAMCCPGNYCKNGICVSSDQNHFRGEIEETITESFGNDHSTLDGYSRRTTLSSKMYHTKGQEGSVCLRSSDCASGLCCARHFWSKICKPVLKEGQVCTKHRRKGSHGLEIFQRCYCGEGLSCRIQKDHHQASNSSRLHTCQRH
Consider B4, for which the Kd in assay [3] was 1300 nM; in assay [1] it was 1200 nM.
